Reference: article PMC4264339 (Virology Journal, 2014)

Experiments:
[1] = biological target: HA protein on FJ13 virus (A/duck/Fujian/13/2002, H5N1), virus particles (Influenza A virus A/duck/Fujian/13/2002 …, UniProt Q9Q0U6, strain); assay: ELISA; conditions: one partner purified
[2] = biological target: HA protein of FJ13 virus in infected MDCK cells (Influenza A virus A/duck/Fujian/13/2002 …, UniProt Q9Q0U6, strain); assay: immunostaining of cells or tissue; conditions: partners not purified

B1: scFv3 secreted from DF-1 cells, c-Myc tagged (scFv, V domains shown)
VH: AVTLDESGGGLQTPGGALSLVCKASGFTFSSYDMYWVRQAPGKGLEFVAIINSGGSTSYYASAVKGRATISRDNGQSTVRLQLNNLRADDTGTYYCAKGPSAIDAWGHGTEVIVSS
VL: ALTQPSSVSANPGETVKITCSGGSSTYGYSWHQQKSPGSAPVTVVYSNDERPSDIPSRFSGSKSGSTGTLTITGVQADDEAIYYCGTYGSTDSGYVGIFGARTTLTVL
binding result [1]: binds | binding result [2]: binds
